Assay results: paper PMC4470286 (Genes & Development, 2015)

T1: Fob1 (wild type) without GST, purified from yeast (S. cerevisiae, UniProt O13329 1-566)
T1 sequence (looked up): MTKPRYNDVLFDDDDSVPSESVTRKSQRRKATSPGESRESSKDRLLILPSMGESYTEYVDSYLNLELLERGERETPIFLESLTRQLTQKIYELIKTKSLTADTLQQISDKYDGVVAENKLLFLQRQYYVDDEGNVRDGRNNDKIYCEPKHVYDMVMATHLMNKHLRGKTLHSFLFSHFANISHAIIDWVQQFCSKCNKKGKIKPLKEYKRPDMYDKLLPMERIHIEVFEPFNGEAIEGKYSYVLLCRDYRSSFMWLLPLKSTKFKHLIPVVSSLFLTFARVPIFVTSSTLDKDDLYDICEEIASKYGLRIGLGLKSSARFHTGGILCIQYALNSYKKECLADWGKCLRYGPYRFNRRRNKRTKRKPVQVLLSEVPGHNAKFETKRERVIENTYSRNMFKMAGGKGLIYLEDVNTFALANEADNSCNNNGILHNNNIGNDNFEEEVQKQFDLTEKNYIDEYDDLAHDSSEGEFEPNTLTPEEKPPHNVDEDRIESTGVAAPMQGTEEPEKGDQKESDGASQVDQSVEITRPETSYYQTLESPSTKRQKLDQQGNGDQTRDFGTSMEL

B1: Reb1 protein of Schizosaccharomyces pombe (natural protein, UniProt Q9P6H9 1-504, looked up)
chain: MDTSVLNPELQIHGFIGVDSLQSSRKRKNDFDDFPLNKGLKTNNNDYSGSIEPKFSPALSIKEDGKNDRNFEALMSLQAQDSNLSEQNTSIHLDALASSSIALGNDNVDSSAFLSKVNKGVNAMRNSTSNQTNDSILISPSEITNMDPFLKGSARWTAEHWDYLERRMQNFCQTYSLDHTQVADSLHEKRLHGPLSSLVKLLVQEMPSFTRRTILRHLRALYNIPGYEKYSRKNSSGRGDFGVQETAIISQEVHNFIMDQGWSEYQFCNQIWAGKCPKTIRMFYSNLYKKLSHRDAKSIYHHVRRAYNPFEDRCVWSKEEDEELRKNVVEHGKCWTKIGRKMARMPNDCRDRWRDVVRFGDKLKRNAWSLEEETQLLQIVAELRNREDLSSDINWTLVAQMLGTRTRLQCRYKFQQLTKAASKFELQENVWLLERIYDSLLNNGGKIHWENIVKEANGRWTRDQMLFQFINLKKMIPSYDNLPLLEATKSAIDDFKVVLSGFSN
B2: C-terminal Fob1 with a kinase tag (from a pMAL fusion) (domain or fragment, S. cerevisiae, UniProt O13329 430-566, looked up)
chain: ILHNNNIGNDNFEEEVQKQFDLTEKNYIDEYDDLAHDSSEGEFEPNTLTPEEKPPHNVDEDRIESTGVAAPMQGTEEPEKGDQKESDGASQVDQSVEITRPETSYYQTLESPSTKRQKLDQQGNGDQTRDFGTSMEL
modifications: 32P-labeled
B3: N-Fob1-GST, purified from yeast (domain or fragment, S. cerevisiae, UniProt O13329 1-429, looked up)
chain: MTKPRYNDVLFDDDDSVPSESVTRKSQRRKATSPGESRESSKDRLLILPSMGESYTEYVDSYLNLELLERGERETPIFLESLTRQLTQKIYELIKTKSLTADTLQQISDKYDGVVAENKLLFLQRQYYVDDEGNVRDGRNNDKIYCEPKHVYDMVMATHLMNKHLRGKTLHSFLFSHFANISHAIIDWVQQFCSKCNKKGKIKPLKEYKRPDMYDKLLPMERIHIEVFEPFNGEAIEGKYSYVLLCRDYRSSFMWLLPLKSTKFKHLIPVVSSLFLTFARVPIFVTSSTLDKDDLYDICEEIASKYGLRIGLGLKSSARFHTGGILCIQYALNSYKKECLADWGKCLRYGPYRFNRRRNKRTKRKPVQVLLSEVPGHNAKFETKRERVIENTYSRNMFKMAGGKGLIYLEDVNTFALANEADNSCNNNG

Key:
crystal structure = molecular target: the molecule itself; assay: crystal structure
[1] = molecular target: B3; assay: pull-down
[2] = molecular target: T1, Fob1 (wild type) without GST, purified …; assay: ELISA

Binder: B1
- stoichiometry N (crystal structure): 2

Binder: B2
- binding result [1]: binds

Binder: B3
- binding result [2]: binds
